Measurements from patent US20170267762A1 (APOLLOMICS, published 2017).
Values belong to the binder of their own block, whether it stands above or below them.

Columns and labels:
[1] = target: T1, human PD-1 on cells (293T cells transfected with human PD-1) (human, UniProt Q15116 25-288); test: FACS ligand blockage: PD-L1 binding to 293T-PD1 cells
T1 construct: whole, on cells; Also used as the target for the functional rows, where PD-1 stands on human T cells

[2] = target: T2, human PD-1 (construct not stated) (human, UniProt Q15116 25-167, limits assumed); test: SPR (Biacore 3000), antibody captured on the chip, PD-1 as analyte, 1:1 Langmuir fit
T2 construct: also called PD-1 analyte
T2 sequence (Q15116 25-167 limits assumed): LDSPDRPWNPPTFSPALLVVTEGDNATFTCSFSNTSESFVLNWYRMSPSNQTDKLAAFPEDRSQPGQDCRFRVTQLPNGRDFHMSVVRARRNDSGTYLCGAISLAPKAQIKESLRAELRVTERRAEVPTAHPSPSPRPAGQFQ
Method: To characterize the binding characteristics of the humanized antibodies, the binding kinetics between PD-1 and PD-1 antibodies were measured by Biacore3000 and recorded with a data collection rate of 1 Hz. The polyclonal rabbit anti-mouse IgG (GE, BR-1008-38) was diluted with 10 mM pH 5.0 sodium acetate and immobilized onto reference and experiment flow cells of a CMS biosensor chip to around 15000 RU using an amine coupling kit (GE, BR10050). In the beginning of each cycle, diluted test antibody (1.5 μg/mL) was injected over experiment flow cell for 1 minute to be captured. PD-1 analyte series were prepared by diluting the stocks with running buffer to 100nM followed by 2× serial dilution in the same buffer down to 0.78nM. Analytes were injected in series over the reference and experiment flow cells for 3 minutes at a flow rate of 30 μL/minute. Then running buffer (PBS with 0.05% P20) was allowed to flow over for 10 minutes at a flow rate of 30 μL/minute. At the end of each cycle, the biosensor surface was regenerated with 3 minutes injection of 10 mM pH1.7 Glycine-HC1 buffer at a flow rate of 10 μL/minute. For each analyte sample injection (i.e. each cycle), binding responses obtained from the experimental biosensor surface were double referenced by subtracting simultaneously recorded responses from the reference surface followed by additional subtraction of responses from a single referenced running buffer sample. The association and dissociation rate constants (ka and kd) were determined simultaneously by fitting double-referenced sensorgrams of the entire titration series to Langmuir model (1:1) using Biaevaluation 4.0 software. The dissociation constant, KD, was calculated from the determined rate constants by the relation KD =kd/ka. […] The Biocore binding curves are shown in FIGS. 10 and 17A, top panel, and the quantified binding data are summarized in FIGS. 10 and 17A, bottom panel.

[3] = target: T3, human PD-1 extracellular domain fused with human Fc tag (hPD-1-hFc) (human); test: ELISA binding to plate-bound PD-1, OD450 (methods similar to Example 2: plate coated with PD1-hFc)
T3 construct: also called human PD-1-hFc
T3 sequence (chain, as listed by the source limits assumed): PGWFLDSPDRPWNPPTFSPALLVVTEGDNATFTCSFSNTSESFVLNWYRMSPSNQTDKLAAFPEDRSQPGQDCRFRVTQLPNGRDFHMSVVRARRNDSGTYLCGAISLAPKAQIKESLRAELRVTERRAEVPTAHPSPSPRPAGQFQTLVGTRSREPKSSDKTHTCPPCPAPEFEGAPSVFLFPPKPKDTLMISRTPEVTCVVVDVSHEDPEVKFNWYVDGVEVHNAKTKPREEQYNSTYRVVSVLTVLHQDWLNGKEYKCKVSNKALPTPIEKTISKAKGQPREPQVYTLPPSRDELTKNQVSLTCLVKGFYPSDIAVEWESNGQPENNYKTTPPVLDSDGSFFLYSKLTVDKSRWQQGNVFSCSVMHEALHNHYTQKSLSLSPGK
Method: ELISA binding analysis was conducted based on human PD-1-hFc Protein. 96-well plates (Costar, Cat No:9018) were coated with 100 μL of 2 μg/ml PD1-hFc (CrownBio) in coating buffer (PBS, Hyclone, Cat No:SH30256.01B) overnight at 4° C. The wells were aspirated and non-specific binding sites were blocked by adding 200 μL of blocking buffer with 1% (w/v) of bovine serum albumin (BSA, Roche, Cat No: 738328) and incubating for 1 hour at 37° C. After the plates are washed three times with wash buffer (PBS with 0.05%(v/v) Tween20 (Sigma, Cat No:P1379), 100 μL/well of a suitable dilutions of hybridoma supernatant in blocking buffer were added and incubated at room temperature for 1 hour. The plates were washed and incubated with 100 μL/well of Goat anti-Mouse IgG (H+L) (Thermo, Cat No: 31432) in blocking buffer for 60 min. After the plates were washed, 100 μL/well of substrate solution (TMB(eBioscience, Cat No:00-4201-56) was added and the plates were incubated for 2min at room temperature. 100 μL/well of stop solution (2N H2SO4) was added to stop the reaction. The colorimetric signals were developed and read at 450 nm using a Auto Plate SpectraMax Plus (Supplier: Molecular Devices; Model: MNR0643; Software: SoftMax Pro v5.4).

[4] = target: T1, human PD-1 on cells (293T cells …); test: FACS ligand blockage: biotin-labeled PD-L1 binding to 293T cells expressing human PD-1, MFI
Method: Various concentrations of the testing hybridoma antibodies were added to the cell suspension and incubated at 4° C. for 60 minutes in 96 well plates. […] Plates were washed 3 times, and mouse anti-biotin PE antibody (Biolgend, cat# 409004) was added. Flow cytometric analyses were performed using a FACS Array.

[5] = target: T4, human PD-1 extracellular domain fused with mouse Fc (PD-1-mFc) (human, UniProt Q15116 25-170); test: ELISA ligand blockage: biotinylated PD-L1-mFc binding to plate-bound PD-1, OD450 (methods similar to Example 2: PD-1-mFc coated)
T4 construct: extracellular domain; not used because of the label; also called hPD-1-mFc; human PD-1-mouse Fc fusion protein
T4 sequence (Q15116 25-170): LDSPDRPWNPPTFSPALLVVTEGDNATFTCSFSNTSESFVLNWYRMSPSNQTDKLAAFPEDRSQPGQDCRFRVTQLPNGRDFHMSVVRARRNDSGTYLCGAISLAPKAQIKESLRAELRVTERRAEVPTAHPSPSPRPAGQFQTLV
Method: PD-1-mFc antigen (CrownBio) was suspended in PBS (Hyclone,Cat No:SH30256.01B) buffer (2 ug/ml, 100 ul/ well) and coated on the 96 well plate (costar, Cat No.:9018) 4° C. overnight. Plates were washed 3 times using washing buffer: PBS+0.05% Tween 20(Sigma, Cat No.:P1379). 200 ul of blocking buffer (PBS+1%BSA(Roche, Cat No.:738328)), was added to each well, incubated at 37° C. for 1 hour, and washed 3 times. Various concentrations (suitable dilutions of hybridoma supernatant in PBS) of the anti-PD-1 Abs were added to the wells (100 μl/well) and incubated at 37° C. for 1 hour. […] Secondary antibody (Avidin HRP eBioscience cat No.:E07418-1632, 1:500, 100 ul/well) was added, incubated at 37 ° C. for 0.5 hour, and washed 3 times. TMB (Sigma, Cat No.: T0440, 100 ul/well) was added, and incubated for 3 min at RT. To stop the reaction, 2N H2SO4 (100 ul/well), was added. The colorimetric signals were developed and read at 450 nm using a Auto Plate SpectraMax Plus (Supplier: Molecular Devices; Model: MNR0643; Software: SoftMax Pro v5.4).

[6] = target: T1, human PD-1 on cells (293T cells …); test: FACS binding to 293T cells expressing human PD-1, MFI
Method: The cells were incubated with the indicated antibody (20 ug/ml with the dilution of ⅕) at 4° C. for 1 h. Cells were washed three times with FACS buffer. A secondary antibody (PE Goat anti-mouse: 1:200; PE mouse anti-human: 1:10) was added to the cells at 100 ul/well, and incubated at 4° C. for 40min. Cells were washed three times with FACS buffer and analyzed by FACS Array.

T1 sequence (Q15116 25-288): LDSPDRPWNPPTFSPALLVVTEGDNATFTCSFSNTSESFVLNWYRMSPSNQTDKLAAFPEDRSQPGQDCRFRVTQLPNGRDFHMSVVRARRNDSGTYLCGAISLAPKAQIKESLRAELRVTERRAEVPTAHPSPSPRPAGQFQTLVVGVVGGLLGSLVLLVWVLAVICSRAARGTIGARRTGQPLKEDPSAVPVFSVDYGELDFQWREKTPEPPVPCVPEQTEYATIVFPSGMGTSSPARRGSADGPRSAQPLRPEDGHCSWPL

IC50 [1]: 0.0258 µg/mL | Ka [2]: 2.55e+09 M⁻¹ | Kd [2]: 0.391 nM | koff [2]: 0.000532 s⁻¹ | kon [2]: 1.36e+06 M⁻¹ s⁻¹
B1: humanized 7A4D-hIgG4 (antibody, V domains shown)
VH: QIQLVQSGSELKKPGASVKVSCKASGYTFTNFGMNWVRQAPGQGLKWMGWISGYTREPTYAADFKGRFVISLDTSVSTAYLQISSLKAEDTAVYYCARDVFDYWGQGTLVTVSS
VL: DIVLTQSPASLAVSPGQRATITCRASESVDNYGYSFMNWFQQKPGQPPKLLIYRASNLESGVPARFSGSGSRTDFTLTINPVEADDTANYYCQQSNADPTFGQGTKLEIKR
notes: also called h7A4D

EC50 [3]: 0.0707 µg/mL | IC50 [4]: 0.0169 µg/mL | IC50 [5]: 0.886 µg/mL | EC50 [6]: 0.0621 µg/mL | Ka [2]: 2.93e+09 M⁻¹ | Kd [2]: 0.342 nM | koff [2]: 0.000498 s⁻¹ | kon [2]: 1.46e+06 M⁻¹ s⁻¹
B2: humanized 7A4-hIgG4 (antibody)
heavy: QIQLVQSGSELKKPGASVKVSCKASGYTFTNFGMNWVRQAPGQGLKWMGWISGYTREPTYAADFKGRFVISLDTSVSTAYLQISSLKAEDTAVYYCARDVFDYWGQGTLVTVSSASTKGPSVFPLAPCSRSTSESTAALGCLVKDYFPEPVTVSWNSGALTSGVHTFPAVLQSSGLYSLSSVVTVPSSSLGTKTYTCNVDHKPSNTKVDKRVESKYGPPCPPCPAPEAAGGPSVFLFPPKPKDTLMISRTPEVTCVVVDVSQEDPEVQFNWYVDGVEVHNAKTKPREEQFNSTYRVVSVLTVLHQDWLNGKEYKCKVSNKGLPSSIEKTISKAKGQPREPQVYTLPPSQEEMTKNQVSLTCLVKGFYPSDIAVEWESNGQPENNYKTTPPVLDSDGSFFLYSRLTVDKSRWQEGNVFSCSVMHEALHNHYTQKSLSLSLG
light: DIVLTQSPASLAVSPGQRATITCRASESVDNYGYSFMNWFQQKPGQPPKLLIYRASNLESGVPARFSGSGSRTDFTLTINPVEANDTANYYCQQSNADPTFGQGTKLEIKRTVAAPSVFIFPPSDEQLKSGTASVVCLLNNFYPREAKVQWKVDNALQSGNSQESVTEQDSKDSTYSLSSTLTLSKADYEKHKVYACEVTHQGLSSPVTKSFNRGEC
notes: IgG4 constant region with F234A and L235A, already in the entry; also called h7A4-IgG4; 7A4-huIgG4

EC50 [3]: 0.0331 µg/mL | IC50 [4]: 0.00761 µg/mL | IC50 [5]: 0.763 µg/mL | EC50 [6]: 0.0332 µg/mL | Ka [2]: 9.82e+09 M⁻¹ | Kd [2]: 0.102 nM | koff [2]: 0.000212 s⁻¹ | kon [2]: 2.09e+06 M⁻¹ s⁻¹
B3: humanized 7A4-hIgG1 (antibody)
heavy: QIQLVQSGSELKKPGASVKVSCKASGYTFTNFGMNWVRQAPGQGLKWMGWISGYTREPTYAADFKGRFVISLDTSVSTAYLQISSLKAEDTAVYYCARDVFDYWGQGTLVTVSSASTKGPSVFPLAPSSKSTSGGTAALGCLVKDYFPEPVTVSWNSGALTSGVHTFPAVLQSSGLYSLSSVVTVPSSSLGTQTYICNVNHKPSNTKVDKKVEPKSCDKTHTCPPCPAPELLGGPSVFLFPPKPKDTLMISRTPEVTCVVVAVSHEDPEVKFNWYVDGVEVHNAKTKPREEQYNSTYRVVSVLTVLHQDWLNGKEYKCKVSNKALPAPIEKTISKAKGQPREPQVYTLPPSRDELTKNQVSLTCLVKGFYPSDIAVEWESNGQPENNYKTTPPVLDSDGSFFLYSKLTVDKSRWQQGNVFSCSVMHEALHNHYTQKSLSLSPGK
light: B2 light
notes: IgG1 constant region with D265A, already in the entry; also called h7A4-IgG1; hu-7A4-D265A-hIgG1
